Laboratory results from patent US20230265179A1 (TWIST BIOSCIENCE, published 2023).
Where a chain is given by its changes, count along the chain named.

B1: IL1RL1-84 (Fc fusion, not shown: a dimerising Fc or GST)
VHH: EVQLVESGGGLVQPGGSLRLSCAASGGIISNYHMGWFRQAPGKEREGVAAIYSDGSTYYADRVKGRFTISADNSKNTAYLQMNSLKPEDTAVYYCAARPVRVDDISLPVGFDWGQGTLVTVSS
notes: VHH-Fc on IgG2 Fc
B2: CD40L-137 (VHH)
VHH: EVQLVESGGGLVQPGGSLRLSCAASGFTFSRYEMGWFRQAPGKEREFVAAIDDGGNTEYADSVKGRFTISADNSKNTAYLQMNSLKPEDTAVYYCAAVYVSTWGNGYDWGQGTLVTVSS
B3: CD40L-140 (VHH)
VHH: EVQLVESGGGLVQPGGSLRLSCAASGNIFSHNAMGWFRQAPGKEREFVASMRGSGSTVYADSVKGRFTISADNSKNTAYLQMNSLKPEDTAVYYCAKSVYGDYIFDYWGQGTLVTVSS
B4: CD40L-134 (VHH)
VHH: EVQLVESGGGLVQPGGSLRLSCAASGFTFSRYEMGWFRQAPGKEREFVATITEGGARNYADSVKGRFTISADNSKNTAYLQMNSLKPEDTAVYYCAAEIGYYSGGTYFSSEAWGQGTLVTVSS
B5: CD40L-156 (antibody, V domains shown)
VH: EVQLLESGGGLVQPGGSLRLSCAASGFMFSWYDMGWVRQAPGKGLEWVSSIDWHGWVTYYADSVKGRFTISRDNSKNTLYLQMNSLRAEDTAVYYCAKAYYGGFDYWGQGTLVTVSS
VL: DIQMTQSPSSLSASVGDRVTITCRASQPIGPDLLWYQQKPGKAPKLLIYDNTNRPSGVPSRFSGSGSGTDFTLTISSLQPEDFATYYCQQSQAAPLTFGQGTKVEIK
notes: IgG2
B6: CD40L-128 (VHH)
VHH: EVQLVESGGGLVQPGGSLRLSCAASGLTFGTHVMGWFRQAPGKEREFVASIDWSGRSTYYADSVKGRFTISADNSKNTAYLQMNSLKPEDTAVYYCAADVWGLGYDWGQGTLVTVSS
B7: CD40L-159 (antibody, V domains shown)
VH: EVQLLESGGGLVQPGGSLRLSCAASGFDFSDYEMSWVRQAPGKGLEWVSSITSEGGSTYYADSVKGRFTISRNNSKNTLYLQMNSLRAEDTAVYYCAKPDVLFDYWGQGTLVTVSS
VL: DIQMTQSPSSLSASVGDRVTITCRASQDISNYLNWYQQKPGKAPKLLIYGKKNRPSGVPSRFSGSGSGTDFTLTISSLQPEDFATYYCQQGYTRTDIDNTFGQGTKVEIK
notes: IgG2
B8: CD40L-160 (antibody, V domains shown)
VH: B7 VH with N73D
VL: DIQMTQSPSSLSASVGDRVTITCRASQDVSSGVAWYQQKPGKAPKLLIYGKKNRPSGVPSRFSGSGSGTDFTLTISSLQPEDFATYYCQAWDRDTGVFGQGTKVEIK
notes: IgG2
B9: CD40L-161 (antibody, V domains shown)
VH: B7 VH with N73D
VL: DIQMTQSPSSLSASVGDRVTITCRASQDVSSGVAWYQQKPGKAPKLLIYATSTLQSGVPSRFSGSGSGTDFTLTISSLQPEDFATYYCQQSFSVPAFGQGTKVEIK
notes: IgG2
B10: CD40L-166 (antibody, V domains shown)
VH: B7 VH with N73D
VL: DIQMTQSPSSLSASVGDRVTITCRASQSIISYVNWYQQKPGKAPKLLIYGASNLHSGVPSRFSGSGSGTDFTLTISSLQPEDFATYYCQQSYSTPTFGQGTKVEIK
notes: IgG2
B11: CD40L-158 (antibody, V domains shown)
VH: EVQLLESGGGLVQPGGSLRLSCAASGGYNFRDYMHWVRQAPGKGLEWVSSIGRHGGRTYYADSVKGRFTISRDNSKNTLYLQMNSLRAEDTAVYYCAKDLGQGFDYWGQGTLVTVSS
VL: DIQMTQSPSSLSASVGDRVTITCRASQDVSSGVAWYQQKPGKAPKLLIYQMSHLASGVPSRFSGSGSGTDFTLTISSLQPEDFATYYCSSQDTVTRVLGQGTKVEIK
notes: IgG2
B12: CD40L-170 (antibody, V domains shown)
VH: B11 VH with R31K
VL: B11 VL
notes: IgG2
B13: CD40L-88 (VHH)
VHH: EVQLVESGGGLVQPGGSLRLSCAASGFTFDDYDMGWFRQAPGKEREFVAAIDWSGGSTYYADSVKGRFTISADNSKNTAYLQMNSLKPEDTAVYYCASDHYDTDTKSDVYNWGQGTLVTVSS
B14: CD40L-136 (VHH)
VHH: B13 VHH with D30S, D52S, W53M, G56E, S57D, T58A, Y59A
B15: CD40L-138 (VHH)
VHH: B13 VHH with D30G, D31N, A50V, W53T, S54N, S57L, T58I, Y59A
B16: CD40L-148 (VHH)
VHH: B13 VHH with D30G, D31N, F47L, D52S, W53M, G56D, S57D, T58A, Y59A
B17: CD40L-143 (VHH)
VHH: B13 VHH with F27R, D30S, D31S, W53A, S57F, Y59E
B18: CD40L-87 (VHH)
VHH: B13 VHH with D52S, W53M, G56D, S57D, T58A, Y59A
B19: CD40L-92 (VHH)
VHH: B13 VHH with Y32S, W53A, S57F, Y59E
B20: CD40L-86 (VHH)
VHH: B13 VHH with F27R, F29L, D30T, D31N, A50V, D52N, W53S, S54G, Y59Q
B21: CD40L-85 (VHH)
VHH: EVQLVESGGGLVQPGGSLRLSCAASGLNLSRLDMGWFRQAPGKEREFVAAVSGSGDDTYYADSVKGRFTISADNSKNTAYLQMNSLKPEDTAVYYCASDHYDTDTKSDVYNWGQGTLVTVSS
B22: CD40L-131 (VHH)
VHH: B13 VHH with F29Y, D30G, D31N, D52Y, W53P, G56R, S57N, T58A
B23: CD40L-71 (VHH)
VHH: EVQLVESGGGLVQPGGSLRLSCAASGSIDNIHAMGWFRQAPGKERKFVAVIYSSDGSTLYADSVKGRFTISADNSKNTAYLQMNSLKPEDTAVYYCAAEPYGSGSSLMSEYDWGQGTLVTVSS
B24: CD40L-78 (VHH)
VHH: B23 VHH with S27G, I28T, D29F, N30S, I31V, H32F, K46E, M108I
B25: CD40L-97 (VHH)
VHH: B23 VHH with S27G, I28T, D29F, N30G, I31H, H32Y, K46E, M108I
B26: CD40L-123 (VHH)
VHH: B23 VHH with S27R, I28T, D29F, N30S, H32Y, K46E
B27: CD40L-132 (VHH)
VHH: B23 VHH with N30R, H32N, K46E, V48I, S53W, S54R, T58S, M108I
B28: CD40L-121 (VHH)
VHH: B23 VHH with S27R, I28T, D29F, N30S, I31T, H32Y, K46E, M108I
B29: CD40L-83 (VHH)
VHH: B23 VHH with S27R, I28T, D29S, H32Y, K46E, V48I, S53W, S54R, T58S, M108I
B30: CD40L-109 (VHH)
VHH: B23 VHH with D29L, N30S, H32N, K46E
B31: CD40L-110 (VHH)
VHH: B23 VHH with I28S, D29G, N30V, H32N, K46E, V48I, S53W, S54R, T58S, M108I
B32: CD40L-81 (VHH)
VHH: B23 VHH with S27G, D29F, N30G, H32N, K46E, V48I, S53W, S54R, T58S, M108I
B33: CD40L-117 (VHH)
VHH: B23 VHH with S27F, D29G, I31Y, K46E, V48I, S53W, S54R, T58S, M108I
B34: CD40L-64 (VHH)
VHH: EVQLVESGGGLVQPGGSLRLSCAASGFTFSRYEMGWFRQAPGKEREMVAAIDDGGNTEYADSVKGRFTISADNSKNTAYLQMNSLKPEDTAVYYCASDHYDTDTKSDVYNWGQGTLVTVSS
B35: CD40L-147 (VHH)
VHH: B34 VHH with M47F, A50T, D52T, D53E, N56A, T57R, E58N
B36: CD40L-127 (VHH)
VHH: B34 VHH with M47L, A50S, D52T, D53N, N56S, E58Y

These binders were tested against T1, IL1RL1 (UniProt Q01638 19-328, limits assumed) (assay: SPR (Carterra LSA), antibody amine-coupled, 1:1 model;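 note: HC30M sensor chip at 25 °C in HBS-TE, analyte at rising concentrations in buffer containing 0.5 mg/mL BSA, 5 min association then 15 min dissociation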).
T1 construct: SPR analyte
T1 sequence (looked up): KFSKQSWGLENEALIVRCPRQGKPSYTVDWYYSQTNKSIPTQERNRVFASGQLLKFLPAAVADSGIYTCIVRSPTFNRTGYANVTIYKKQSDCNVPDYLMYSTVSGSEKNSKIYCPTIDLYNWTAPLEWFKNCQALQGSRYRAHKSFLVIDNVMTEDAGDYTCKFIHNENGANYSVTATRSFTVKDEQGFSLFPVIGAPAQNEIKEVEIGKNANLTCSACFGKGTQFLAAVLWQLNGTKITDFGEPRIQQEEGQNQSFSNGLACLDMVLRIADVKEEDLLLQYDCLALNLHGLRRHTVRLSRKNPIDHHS
B1 gave a Kd of at most 67.3 pM, a koff of at most 1e-05 s⁻¹ and a kon of 149000 M⁻¹ s⁻¹.

These binders were tested against T2, CD40L over-expressed on Expi293 cells (UniProt P29965 1-261, limits assumed) (assay: flow cytometry, 100 nM antibody, CD40L-Expi293 vs parent Expi293 cells;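 note: ratio is the mean fluorescence intensity on CD40L-overexpressing Expi293 cells divided by the mean fluorescence intensity on parental Expi293 cells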).
T2 construct: whole, on cells; also called cytokine over-expressing Expi293 cells
T2 sequence (looked up): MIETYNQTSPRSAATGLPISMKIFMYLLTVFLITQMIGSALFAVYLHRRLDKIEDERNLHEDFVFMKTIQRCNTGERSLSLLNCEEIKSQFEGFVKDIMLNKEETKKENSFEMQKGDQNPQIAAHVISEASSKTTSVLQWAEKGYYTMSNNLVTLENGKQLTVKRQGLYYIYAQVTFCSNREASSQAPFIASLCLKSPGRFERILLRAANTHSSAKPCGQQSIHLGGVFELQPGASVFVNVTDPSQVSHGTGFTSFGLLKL
Protocol: All incubations and washes were in buffer containing PBS+1% BSA. MFI Ratio is defined by the mean fluorescence intensity (MFI) of the cytokine over-expressing Expi293 cell over the Expi293 parent cell. […] EC50 was calculated in GraphPad Prism.
With B2 the “100 nM FACS (MFI Ratio)” value was 7.7 ratio. For B3, the “100 nM FACS (MFI Ratio)” value was 4.3 ratio. In the case of B4, the “100 nM FACS (MFI Ratio)” value is reported as 7.3 ratio. In the case of B5, the “100 nM FACS (MFI Ratio)” value is reported as 1.3 ratio. In the case of B6, the “100 nM FACS (MFI Ratio)” value is reported as 1.6 ratio. For B7, the “100 nM FACS (MFI Ratio)” value was 0.3 ratio. For B8, the “100 nM FACS (MFI Ratio)” value was 0.3 ratio. In the case of B9, the “100 nM FACS (MFI Ratio)” value is reported as 0.9 ratio. B10 was tested, and the “100 nM FACS (MFI Ratio)” value was 1.1 ratio. B11 was tested, and the “100 nM FACS (MFI Ratio)” value was 1.5 ratio. For B12, the “100 nM FACS (MFI Ratio)” value was 0.6 ratio. For B13, the “100 nM FACS (MFI Ratio)” value was 26 ratio. B14 was tested, and the “100 nM FACS (MFI Ratio)” value was 22.4 ratio. B15 was tested, and the “100 nM FACS (MFI Ratio)” value was 5.1 ratio. In the case of B16, the “100 nM FACS (MFI Ratio)” value is reported as 12.5 ratio. In the case of B17, the “100 nM FACS (MFI Ratio)” value is reported as 8.3 ratio. With B18 the “100 nM FACS (MFI Ratio)” value was 18.3 ratio. With B19 the “100 nM FACS (MFI Ratio)” value was 6.6 ratio. B20 was tested, and the “100 nM FACS (MFI Ratio)” value was 8.9 ratio. In the case of B21, the “100 nM FACS (MFI Ratio)” value is reported as 42.6 ratio. With B22 the “100 nM FACS (MFI Ratio)” value was 12.1 ratio. B23 was tested, and the “100 nM FACS (MFI Ratio)” value was 5.9 ratio. In the case of B24, the “100 nM FACS (MFI Ratio)” value is reported as 8.2 ratio. B25 was tested, and the “100 nM FACS (MFI Ratio)” value was 8.9 ratio. In the case of B26, the “100 nM FACS (MFI Ratio)” value is reported as 6.7 ratio. For B27, the “100 nM FACS (MFI Ratio)” value was 3.9 ratio. B28 was tested, and the “100 nM FACS (MFI Ratio)” value was 6.9 ratio. For B29, the “100 nM FACS (MFI Ratio)” value was 15.7 ratio. In the case of B30, the “100 nM FACS (MFI Ratio)” value is reported as 4.7 ratio. B31 was tested, and the “100 nM FACS (MFI Ratio)” value was 4.9 ratio. For B32, the “100 nM FACS (MFI Ratio)” value was 6 ratio. With B33 the “100 nM FACS (MFI Ratio)” value was 3.6 ratio. B34 was tested, and the “100 nM FACS (MFI Ratio)” value was 19.4 ratio. B35 was tested, and the “100 nM FACS (MFI Ratio)” value was 7.4 ratio. In the case of B36, the “100 nM FACS (MFI Ratio)” value is reported as 11.9 ratio.
